Earlier results in patent US20010007853A1, “METHOD FOR ADMINISTERING MONOMERIC INSULIN ANALOGS” (priority 1998, published 2001).

Conditions: calculated

Row | Substance | Absorption values for proteins delivered through the lungs
1 | glycosylated α1-antitrypsin | 48 h
2 | parathyroid hormone (fragment 1-34) | fifteen
